Results from patent publication US20190134153A1, “IMMUNOMODULATORY EFFECT OF INHALED KINASE INHIBITOR PEPTIDES IN LUNG” (MOERAE MATRIX, INC., priority 2017, published 2019).

Columns and labels:
Experiment in all cases: Kinase Profiling Assay
Type in all cases: biochemical
Details in all cases: 100 μM
[1] = target: PRK2(h) (Homo sapiens, UniProt Q16513)
[2] = target: Flt1(h) (Homo sapiens, UniProt P17948)
[3] = target: eEF-2K(h) (Homo sapiens, UniProt O00418)
[4] = target: cKit(h) (Homo sapiens, UniProt P10721)
[5] = target: T1, IKKβ(h) (Homo sapiens, UniProt O14920)
T1 sequence (O14920 1-756): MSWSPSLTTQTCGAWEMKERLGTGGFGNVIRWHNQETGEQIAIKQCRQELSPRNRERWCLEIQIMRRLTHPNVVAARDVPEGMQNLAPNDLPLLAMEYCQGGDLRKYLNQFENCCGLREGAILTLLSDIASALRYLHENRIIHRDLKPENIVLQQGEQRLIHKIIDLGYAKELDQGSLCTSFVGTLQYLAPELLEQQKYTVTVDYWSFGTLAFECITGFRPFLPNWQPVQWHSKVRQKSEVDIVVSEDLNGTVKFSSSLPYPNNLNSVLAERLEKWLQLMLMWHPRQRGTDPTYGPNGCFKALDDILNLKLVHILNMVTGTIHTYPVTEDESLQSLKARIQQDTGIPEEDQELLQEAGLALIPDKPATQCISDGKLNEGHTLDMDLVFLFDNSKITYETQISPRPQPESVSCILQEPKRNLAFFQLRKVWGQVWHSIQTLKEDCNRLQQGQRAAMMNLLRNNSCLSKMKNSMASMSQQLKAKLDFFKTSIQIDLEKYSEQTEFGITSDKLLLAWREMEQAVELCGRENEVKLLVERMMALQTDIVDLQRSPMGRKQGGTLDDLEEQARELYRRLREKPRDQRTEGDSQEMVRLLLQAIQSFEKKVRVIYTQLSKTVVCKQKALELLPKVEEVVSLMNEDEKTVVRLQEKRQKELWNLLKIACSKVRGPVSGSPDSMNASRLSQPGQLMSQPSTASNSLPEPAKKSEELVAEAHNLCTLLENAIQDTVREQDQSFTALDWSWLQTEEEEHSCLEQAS

[6] = target: PKBβ(h) (Homo sapiens, UniProt P31751)
[7] = target: IRR(h) (Homo sapiens, UniProt P14616)
[8] = target: RIPK2(h) (Homo sapiens, UniProt O43353)
[9] = target: Pim-2(h) (Homo sapiens, UniProt Q9P1W9)
[10] = target: CaMKIIγ(h) (Homo sapiens, UniProt Q13555)
[11] = target: CDK2/cyclinA(h) (Homo sapiens, UniProt P24941)
[12] = target: PKBα(h) (Homo sapiens, UniProt P31749)
[13] = target: Plk3(h) (Homo sapiens, UniProt Q9H4B4)
[14] = target: EGFR(h) (Homo sapiens, UniProt P00533)
[15] = target: Flt3(h) (Homo sapiens, UniProt P36888)
[16] = target: CHK2(h) (Homo sapiens, UniProt O96017)
[17] = target: cSRC(h) (Homo sapiens, UniProt P12931)
[18] = target: Fyn(h) (Homo sapiens, UniProt P06241)
[19] = target: Met(D1246H)(h) (Homo sapiens, UniProt P08581, D1228H)
[20] = target: HIPK1(h) (Homo sapiens, UniProt Q86Z02)
Sequence of HIPK1(h) (Q86Z02 whole entry): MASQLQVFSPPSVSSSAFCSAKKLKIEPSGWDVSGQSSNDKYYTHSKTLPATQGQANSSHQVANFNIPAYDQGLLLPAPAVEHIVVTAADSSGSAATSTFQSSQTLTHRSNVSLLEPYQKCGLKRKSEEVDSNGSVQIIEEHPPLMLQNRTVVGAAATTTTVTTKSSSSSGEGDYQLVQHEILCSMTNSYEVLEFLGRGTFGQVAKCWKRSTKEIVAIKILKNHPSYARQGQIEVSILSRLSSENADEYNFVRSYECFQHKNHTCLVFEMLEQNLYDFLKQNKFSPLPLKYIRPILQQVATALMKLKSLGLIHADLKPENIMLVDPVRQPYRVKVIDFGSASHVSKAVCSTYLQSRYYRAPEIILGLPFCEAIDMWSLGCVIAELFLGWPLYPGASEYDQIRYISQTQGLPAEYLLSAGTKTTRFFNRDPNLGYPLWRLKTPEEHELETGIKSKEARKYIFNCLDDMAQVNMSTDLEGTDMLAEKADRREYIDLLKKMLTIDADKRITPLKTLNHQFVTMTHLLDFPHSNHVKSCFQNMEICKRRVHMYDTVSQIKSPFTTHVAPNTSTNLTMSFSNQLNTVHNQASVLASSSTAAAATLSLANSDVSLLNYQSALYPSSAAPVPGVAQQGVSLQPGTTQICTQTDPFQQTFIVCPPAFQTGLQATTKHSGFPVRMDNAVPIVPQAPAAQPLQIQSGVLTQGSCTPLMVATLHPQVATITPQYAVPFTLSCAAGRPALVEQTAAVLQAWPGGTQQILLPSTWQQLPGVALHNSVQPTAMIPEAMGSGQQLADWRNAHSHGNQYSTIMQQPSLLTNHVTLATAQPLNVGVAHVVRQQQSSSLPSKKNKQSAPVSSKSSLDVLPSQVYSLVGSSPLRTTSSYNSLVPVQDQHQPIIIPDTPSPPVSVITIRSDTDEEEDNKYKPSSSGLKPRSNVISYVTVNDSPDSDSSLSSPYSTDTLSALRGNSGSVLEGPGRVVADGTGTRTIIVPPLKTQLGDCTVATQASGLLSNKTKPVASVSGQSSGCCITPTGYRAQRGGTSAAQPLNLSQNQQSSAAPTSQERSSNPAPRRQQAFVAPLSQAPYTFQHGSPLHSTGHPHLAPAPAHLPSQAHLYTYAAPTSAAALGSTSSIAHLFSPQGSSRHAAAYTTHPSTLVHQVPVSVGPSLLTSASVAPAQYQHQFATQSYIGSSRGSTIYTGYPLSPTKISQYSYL

Sequence of IRR(h) (P14616 27-1297): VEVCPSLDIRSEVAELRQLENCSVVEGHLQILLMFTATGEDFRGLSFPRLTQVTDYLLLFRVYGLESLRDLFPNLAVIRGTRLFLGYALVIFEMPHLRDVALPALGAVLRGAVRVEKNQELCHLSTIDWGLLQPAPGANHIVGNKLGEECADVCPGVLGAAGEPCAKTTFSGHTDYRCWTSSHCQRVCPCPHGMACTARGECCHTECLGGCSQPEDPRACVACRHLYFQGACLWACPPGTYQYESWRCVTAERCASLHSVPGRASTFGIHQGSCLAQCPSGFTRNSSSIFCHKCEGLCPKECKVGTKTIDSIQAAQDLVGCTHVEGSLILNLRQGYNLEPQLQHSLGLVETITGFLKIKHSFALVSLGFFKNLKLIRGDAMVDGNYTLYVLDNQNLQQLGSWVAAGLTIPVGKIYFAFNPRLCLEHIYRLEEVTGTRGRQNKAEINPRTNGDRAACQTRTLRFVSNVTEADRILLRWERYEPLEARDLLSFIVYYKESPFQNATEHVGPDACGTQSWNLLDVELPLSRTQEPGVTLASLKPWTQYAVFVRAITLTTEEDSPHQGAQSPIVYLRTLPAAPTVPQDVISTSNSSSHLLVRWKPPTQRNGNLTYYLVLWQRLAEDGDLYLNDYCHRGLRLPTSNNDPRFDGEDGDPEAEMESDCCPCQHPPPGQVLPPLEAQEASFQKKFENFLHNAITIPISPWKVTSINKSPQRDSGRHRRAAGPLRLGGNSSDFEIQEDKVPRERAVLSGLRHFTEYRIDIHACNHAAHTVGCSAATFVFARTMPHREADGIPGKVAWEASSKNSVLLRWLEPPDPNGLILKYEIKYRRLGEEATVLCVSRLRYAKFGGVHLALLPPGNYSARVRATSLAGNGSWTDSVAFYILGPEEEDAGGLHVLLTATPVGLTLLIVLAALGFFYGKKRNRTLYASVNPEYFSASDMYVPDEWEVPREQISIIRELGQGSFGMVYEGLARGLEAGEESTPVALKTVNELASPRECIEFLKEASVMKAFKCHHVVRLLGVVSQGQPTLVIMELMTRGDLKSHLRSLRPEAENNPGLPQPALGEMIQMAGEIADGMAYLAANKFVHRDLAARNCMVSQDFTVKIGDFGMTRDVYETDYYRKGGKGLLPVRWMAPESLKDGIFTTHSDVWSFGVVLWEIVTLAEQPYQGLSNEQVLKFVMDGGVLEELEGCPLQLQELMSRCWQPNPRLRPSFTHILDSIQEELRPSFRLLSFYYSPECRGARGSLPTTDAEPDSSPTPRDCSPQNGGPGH
Sequence of RIPK2(h) (O43353 whole entry): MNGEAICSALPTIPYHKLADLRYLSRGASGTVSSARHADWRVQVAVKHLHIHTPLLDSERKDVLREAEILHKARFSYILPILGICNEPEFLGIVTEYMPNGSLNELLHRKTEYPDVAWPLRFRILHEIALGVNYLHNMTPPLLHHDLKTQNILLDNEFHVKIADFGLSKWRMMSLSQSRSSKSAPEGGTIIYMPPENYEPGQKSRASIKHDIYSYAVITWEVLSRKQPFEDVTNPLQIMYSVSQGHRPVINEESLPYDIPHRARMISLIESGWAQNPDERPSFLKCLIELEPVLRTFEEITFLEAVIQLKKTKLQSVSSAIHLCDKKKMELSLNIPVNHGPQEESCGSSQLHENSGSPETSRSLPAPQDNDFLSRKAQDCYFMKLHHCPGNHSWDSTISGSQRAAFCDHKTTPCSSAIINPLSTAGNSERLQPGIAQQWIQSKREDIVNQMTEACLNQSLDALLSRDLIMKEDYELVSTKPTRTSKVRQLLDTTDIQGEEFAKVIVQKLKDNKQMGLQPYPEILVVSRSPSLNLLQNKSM
Sequence of Plk3(h) (Q9H4B4 whole entry): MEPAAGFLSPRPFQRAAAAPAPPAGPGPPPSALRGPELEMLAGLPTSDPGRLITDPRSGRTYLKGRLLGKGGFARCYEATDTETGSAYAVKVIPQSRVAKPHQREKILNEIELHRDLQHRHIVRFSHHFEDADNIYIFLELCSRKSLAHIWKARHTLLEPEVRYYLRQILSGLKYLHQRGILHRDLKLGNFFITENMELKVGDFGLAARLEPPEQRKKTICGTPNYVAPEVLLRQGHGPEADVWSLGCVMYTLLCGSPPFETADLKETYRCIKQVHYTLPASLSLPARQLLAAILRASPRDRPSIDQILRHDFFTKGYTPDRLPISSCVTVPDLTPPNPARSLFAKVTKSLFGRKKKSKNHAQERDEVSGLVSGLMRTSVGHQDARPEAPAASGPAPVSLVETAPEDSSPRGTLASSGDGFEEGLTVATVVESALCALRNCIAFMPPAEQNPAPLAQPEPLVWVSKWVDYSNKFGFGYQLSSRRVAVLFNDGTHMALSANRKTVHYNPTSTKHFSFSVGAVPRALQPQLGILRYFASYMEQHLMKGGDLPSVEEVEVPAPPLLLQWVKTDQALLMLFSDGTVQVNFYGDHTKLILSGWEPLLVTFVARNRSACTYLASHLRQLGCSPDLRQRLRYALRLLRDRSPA
Sequence of PKBβ(h) (P31751 whole entry): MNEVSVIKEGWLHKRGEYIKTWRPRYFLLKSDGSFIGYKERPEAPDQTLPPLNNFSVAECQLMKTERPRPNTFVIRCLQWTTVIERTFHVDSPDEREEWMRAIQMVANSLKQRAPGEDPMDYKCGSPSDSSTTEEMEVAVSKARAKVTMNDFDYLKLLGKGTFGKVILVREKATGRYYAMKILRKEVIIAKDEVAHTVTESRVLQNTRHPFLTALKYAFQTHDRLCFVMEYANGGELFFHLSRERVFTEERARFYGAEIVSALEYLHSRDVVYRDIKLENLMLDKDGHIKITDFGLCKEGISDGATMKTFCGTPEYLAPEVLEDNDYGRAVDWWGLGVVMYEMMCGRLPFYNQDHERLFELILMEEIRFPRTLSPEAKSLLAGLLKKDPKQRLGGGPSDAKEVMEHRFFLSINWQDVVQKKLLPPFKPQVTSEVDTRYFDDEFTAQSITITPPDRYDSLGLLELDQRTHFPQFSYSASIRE
Sequence of PKBα(h) (P31749 whole entry): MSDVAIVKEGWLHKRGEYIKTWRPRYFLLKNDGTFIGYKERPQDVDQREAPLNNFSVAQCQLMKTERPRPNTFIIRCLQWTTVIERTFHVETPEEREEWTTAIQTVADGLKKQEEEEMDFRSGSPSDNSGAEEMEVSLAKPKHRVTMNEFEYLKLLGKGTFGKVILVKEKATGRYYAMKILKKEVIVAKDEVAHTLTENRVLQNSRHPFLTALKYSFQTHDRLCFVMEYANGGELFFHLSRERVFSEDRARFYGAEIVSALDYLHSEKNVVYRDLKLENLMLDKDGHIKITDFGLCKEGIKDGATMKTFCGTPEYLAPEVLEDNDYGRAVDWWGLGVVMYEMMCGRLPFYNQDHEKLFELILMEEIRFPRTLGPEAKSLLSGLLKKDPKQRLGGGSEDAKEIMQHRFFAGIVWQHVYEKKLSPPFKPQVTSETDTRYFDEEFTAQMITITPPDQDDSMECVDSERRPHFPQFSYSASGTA
Sequence of Pim-2(h) (Q9P1W9 whole entry): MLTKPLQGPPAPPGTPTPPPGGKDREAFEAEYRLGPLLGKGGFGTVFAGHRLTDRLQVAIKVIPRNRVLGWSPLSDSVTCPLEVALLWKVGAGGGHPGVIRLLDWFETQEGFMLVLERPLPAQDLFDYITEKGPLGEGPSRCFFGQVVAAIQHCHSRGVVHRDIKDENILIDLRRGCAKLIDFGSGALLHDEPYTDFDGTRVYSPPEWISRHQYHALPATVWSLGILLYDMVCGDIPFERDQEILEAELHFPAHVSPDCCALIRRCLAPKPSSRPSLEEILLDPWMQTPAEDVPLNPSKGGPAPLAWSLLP

Sequence | % activity [1] | % activity [2] | % activity [3] | % activity [4] | % activity [5] | % activity [6] | % activity [7] | % activity [8] | % activity [9] | % activity [10] | % activity [11] | % activity [12] | % activity [13] | % activity [14] | % activity [15] | % activity [16] | % activity [17] | % activity [18] | % activity [19] | % activity [20]
FAKLAARLYRKALARQLGVAA [MMI-0300] | 33% | 69% | 91% | 53% | 84% | 84% | 8% | 97% | 76% | 5% | 86% | 57% | 127% | 21% | 84% | 66% | 26% | 74% | 125% | 74%
KAFAKLAARLYRKALARQLGVAA [MMI-0400] | 27% | 48% | 43% | 43% | 84% | 98% | 8% | 98% | 92% | 3% | 92% | 67% | 129% | 16% | 18% | 54% | 14% | 54% | 68% | 91%
YARAAARQARAKALNRQLGVA [MMI-0200] | 74% | 96% |  | 110% |  | 250% | 69% | 98% | 74% | 94% |  | 110% |  | 83% | 99% |  | 32% | 75% | 139% | 
HRRIKAWLKKIKALARQLGVAA [MMI-0500] | 7% | 27% | 43% | 45% | 71% | 21% | 10% | 30% | 46% | 3% | 87% | 30% | 122% | −1% | 17% | 13% | 30% | 83% | 150% | 47%
